What was measured:
Experiment in all cases: purified protein
[1] = tested on: CC(=O)[C@H]1CC[C@H]2[C@@H]3CCC4=CC(=O)CC[C@]4(C)[C@H]3CC[C@]12C; assay type: biochemical, Digitalis lanata; conditions: 250 μM NADPH, 50 mM HEPES/NaOH pH 7.0, 100 mM NaCl, 25 °C, 1.5% ethanol
[2] = tested on: CC(=O)[C@H]1CC[C@H]2[C@@H]3CCC4=CC(=O)CC[C@]4(C)[C@H]3CC[C@]12C; assay type: biochemical, Digitalis purpurea; conditions: 250 μM NADPH, 50 mM HEPES/NaOH pH 7.0, 100 mM NaCl, 25 °C, 1.5% ethanol
C/C(C=O)=C\CC/C(C)=C/C=O = conditions: 250 μM NADPH, 50 mM HEPES/NaOH pH 7.0, 100 mM NaCl, 25 °C, 0.1% tetrahydrofuran
[3] = tested on: CC(=O)[C@H]1CC[C@H]2[C@@H]3CCC4=CC(=O)CC[C@]4(C)[C@H]3CC[C@]12C; conditions: 250 μM NADPH, 50 mM HEPES/NaOH pH 7.0, 100 mM NaCl, 25 °C, 1.5% ethanol

Substance: Digitalis lanata 1 (PRISE1, progesterone 5β-reductase) (Digitalis lanata)
- Km [1]: 6.5 ± 2.0 µM

Substance: Digitalis purpurea 2 (Digitalis purpurea)
- Km [2]: 6.3 ± 1.9 µM

Substance: Physcomitrella patens PRISE (Physcomitrium patens)
- Km (C/C(C=O)=C\CC/C(C)=C/C=O): 31.3 ± 8.6 µM
- kcat (C/C(C=O)=C\CC/C(C)=C/C=O): 0.066 ± 0.005 s⁻¹
- kcat/Km (C/C(C=O)=C\CC/C(C)=C/C=O): 2100 M⁻¹ s⁻¹
- Km [3]: 9.5 ± 3.1 µM

From article PMC7467569, “The Progesterone 5β-Reductase/Iridoid Synthase Family: A Catalytic Reservoir for Specialized Metabolism across Land Plants” (ACS Chemical Biology, 2020)
